Test results as given in paper PMC9482650, “Quantitative fragmentomics allow affinity mapping of interactomes” (Nature Communications, 2022).

What was measured:
Test in all cases: holdup assay
Design in all cases: key: below the threshold = too weak to quantify, mostly under pKd 3.1 to 4
Details in all cases: plain residues with an end cap or a label only (N-terminal biotin on a linker: ttds)
[1] = molecular target: T1, APBA3_1, O96018
T1 sequence (O96018 389-490, limits assumed, looked up): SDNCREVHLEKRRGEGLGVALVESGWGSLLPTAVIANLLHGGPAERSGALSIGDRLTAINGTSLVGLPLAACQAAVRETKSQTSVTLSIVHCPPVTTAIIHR

[2] = molecular target: T2, DFNB31_3, Q9P202
T2 sequence (Q9P202 811-907, limits assumed, looked up): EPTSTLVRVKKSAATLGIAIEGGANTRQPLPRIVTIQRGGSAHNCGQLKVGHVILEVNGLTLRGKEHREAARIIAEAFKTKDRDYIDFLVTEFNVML

[3] = molecular target: DLG1_1, Q12959
[4] = molecular target: DLG1_2, Q12959
[5] = molecular target: DLG1_3, Q12959
[6] = molecular target: T3, DLG3_3, Q92796
T3 sequence (Q92796 374-475, limits assumed, looked up): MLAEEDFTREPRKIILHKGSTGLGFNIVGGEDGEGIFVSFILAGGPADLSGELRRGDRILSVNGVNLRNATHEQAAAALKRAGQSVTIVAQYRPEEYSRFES

[7] = molecular target: FRMPD2_3, Q68DX3
FRMPD2_3, Q68DX3, sequence (Q68DX3 1073-1166): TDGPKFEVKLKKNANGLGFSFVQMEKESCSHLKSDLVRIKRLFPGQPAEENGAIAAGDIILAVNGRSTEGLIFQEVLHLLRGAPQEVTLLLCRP

[8] = molecular target: GOPC, Q9HD26
[9] = molecular target: GORASP2, Q9H8Y8
[10] = molecular target: T4, GRIP1_7, Q9Y3R0
T4 sequence (Q9Y3R0 999-1096, limits assumed, looked up): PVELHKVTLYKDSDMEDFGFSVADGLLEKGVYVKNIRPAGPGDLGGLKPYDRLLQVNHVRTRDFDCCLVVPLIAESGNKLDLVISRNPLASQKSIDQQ

[11] = molecular target: GRIP2_4, Q9C0E4
GRIP2_4, Q9C0E4, sequence (Q9C0E4 446-548): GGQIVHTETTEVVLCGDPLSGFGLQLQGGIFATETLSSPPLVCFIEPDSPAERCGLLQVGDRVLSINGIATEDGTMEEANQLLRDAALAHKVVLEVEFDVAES

[12] = molecular target: GRIP2_6, Q9C0E4
GRIP2_6, Q9C0E4, sequence (Q9C0E4 648-740): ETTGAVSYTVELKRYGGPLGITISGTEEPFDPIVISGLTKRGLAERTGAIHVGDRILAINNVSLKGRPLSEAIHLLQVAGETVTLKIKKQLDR

[13] = molecular target: IL16_1, Q14005
IL16_1, Q14005, sequence (Q14005 210-306): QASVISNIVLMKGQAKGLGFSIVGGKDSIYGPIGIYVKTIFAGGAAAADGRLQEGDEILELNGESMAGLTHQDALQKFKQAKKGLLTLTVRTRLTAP

[14] = molecular target: Inadl_1, Q8NI35
Inadl_1, Q8NI35, sequence (Q8NI35 113-229): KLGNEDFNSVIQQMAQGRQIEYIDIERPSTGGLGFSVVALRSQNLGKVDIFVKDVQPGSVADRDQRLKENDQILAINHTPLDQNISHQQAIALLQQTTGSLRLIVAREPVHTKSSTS

[15] = molecular target: Inadl_4, Q8NI35
Inadl_4, Q8NI35, sequence (Q8NI35 547-651): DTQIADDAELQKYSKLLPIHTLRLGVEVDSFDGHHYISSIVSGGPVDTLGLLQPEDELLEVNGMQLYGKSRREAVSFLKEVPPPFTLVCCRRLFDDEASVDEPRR

[16] = molecular target: LAP2, Q96RT1
LAP2, Q96RT1, sequence (Q96RT1 other isoform, or with tags, fused parts or gaps): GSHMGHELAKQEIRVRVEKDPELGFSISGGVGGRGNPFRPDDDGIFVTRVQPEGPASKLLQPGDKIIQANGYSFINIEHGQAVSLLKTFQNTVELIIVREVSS

[17] = molecular target: T5, LIN7A, O14910
T5 sequence (O14910 103-200, limits assumed, looked up): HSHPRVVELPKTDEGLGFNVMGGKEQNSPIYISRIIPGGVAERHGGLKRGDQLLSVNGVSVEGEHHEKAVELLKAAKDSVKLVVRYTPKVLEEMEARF

[18] = molecular target: LNX1_2, Q8TBB1
LNX1_2, Q8TBB1, sequence (Q8TBB1 371-470): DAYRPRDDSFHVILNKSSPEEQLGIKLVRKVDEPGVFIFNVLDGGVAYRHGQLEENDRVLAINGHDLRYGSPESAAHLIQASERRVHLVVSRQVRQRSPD

[19] = molecular target: MAGI2_6, Q86UL8
MAGI2_6, Q86UL8, sequence (Q86UL8 1141-1229): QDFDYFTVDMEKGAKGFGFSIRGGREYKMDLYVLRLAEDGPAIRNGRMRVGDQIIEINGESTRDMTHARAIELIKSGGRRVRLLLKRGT

[20] = molecular target: MAST1, Q9Y2H9
MAST1, Q9Y2H9, sequence (Q9Y2H9 962-1065): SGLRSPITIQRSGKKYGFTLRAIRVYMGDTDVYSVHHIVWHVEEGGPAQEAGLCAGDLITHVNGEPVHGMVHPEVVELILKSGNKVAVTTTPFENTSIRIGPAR

[21] = molecular target: T6, MPDZ_12, O75970
T6 sequence (O75970 1857-1958, limits assumed, looked up): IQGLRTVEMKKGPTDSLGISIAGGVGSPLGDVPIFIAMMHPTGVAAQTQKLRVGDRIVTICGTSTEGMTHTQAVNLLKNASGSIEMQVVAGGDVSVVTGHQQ

[22] = molecular target: NHERF2_2, Q15599
NHERF2_2, Q15599, sequence (Q15599 142-238): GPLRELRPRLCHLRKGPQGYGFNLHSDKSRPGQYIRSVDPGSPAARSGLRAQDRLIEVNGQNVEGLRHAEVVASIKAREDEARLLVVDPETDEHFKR

[23] = molecular target: NOS1, P29475
NOS1, P29475, sequence (P29475 9-101): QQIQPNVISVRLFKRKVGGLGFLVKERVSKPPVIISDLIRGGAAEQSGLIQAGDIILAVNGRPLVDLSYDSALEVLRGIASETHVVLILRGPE

[24] = molecular target: PARD3_3, Q8TEW0
PARD3_3, Q8TEW0, sequence (Q8TEW0 582-685): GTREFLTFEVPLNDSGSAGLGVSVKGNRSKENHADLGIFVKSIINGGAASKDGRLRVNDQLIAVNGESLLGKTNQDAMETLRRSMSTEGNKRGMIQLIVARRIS

[25] = molecular target: T7, PDZD2_2, O15018
T7 sequence (O15018 329-429, limits assumed, looked up): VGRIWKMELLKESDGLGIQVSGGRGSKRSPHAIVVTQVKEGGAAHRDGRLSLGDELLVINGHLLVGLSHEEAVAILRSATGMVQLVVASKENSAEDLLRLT

[26] = molecular target: PDZRN4_1, Q6ZMN7
PDZRN4_1, Q6ZMN7, sequence (Q6ZMN7 213-318): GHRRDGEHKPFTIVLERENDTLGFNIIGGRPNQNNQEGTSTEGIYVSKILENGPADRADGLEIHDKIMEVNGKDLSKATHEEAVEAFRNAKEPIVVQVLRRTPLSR

[27] = molecular target: T8, SNTG1, Q9NSN8
T8 sequence (Q9NSN8 52-150, limits assumed, looked up): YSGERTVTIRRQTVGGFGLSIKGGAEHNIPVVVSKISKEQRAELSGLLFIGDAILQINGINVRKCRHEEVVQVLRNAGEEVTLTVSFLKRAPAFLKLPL

[28] = molecular target: TJP1_2, Q07157
TJP1_2, Q07157, sequence (Q07157 181-274): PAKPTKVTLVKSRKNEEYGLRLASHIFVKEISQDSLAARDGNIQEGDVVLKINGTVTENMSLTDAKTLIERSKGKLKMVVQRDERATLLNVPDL

[29] = molecular target: T9, TJP3_3, O95049
T9 sequence (O95049 375-456, limits assumed, looked up): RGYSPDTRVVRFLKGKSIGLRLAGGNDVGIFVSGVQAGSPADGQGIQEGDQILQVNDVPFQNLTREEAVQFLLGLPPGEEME

pKd [1]: below the threshold
pKd [2]: below the threshold
pKd [3]: 4.46
pKd [4]: 4.57
pKd [5]: 4.38
pKd [6]: 3.83
pKd [7]: below the threshold
pKd [8]: 4.52
pKd [9]: 3.82
pKd [10]: below the threshold
pKd [11]: below the threshold
pKd [12]: below the threshold
pKd [13]: 3.5
pKd [14]: 3.53
pKd [15]: below the threshold
pKd [16]: 4.57
pKd [17]: 3.66
pKd [18]: below the threshold
pKd [19]: 4.53
pKd [20]: 5.28
pKd [21]: below the threshold
pKd [22]: 5.07
pKd [23]: 4.04
pKd [24]: 4.31
pKd [25]: 3.65
pKd [26]: 5.42
pKd [27]: 4.89
pKd [28]: below the threshold
pKd [29]: below the threshold
Binder: STLTIFETAL [ABCC4, O15439]
